{
  "source": "patent US11103562B2",
  "about": "“Composition comprising alkaline phosphatase for use in the treatment of arthritides” (AMRIF BV, priority 2017, dated 2021)",
  "system": "ED1+ and ED2+ synovial macrophages",
  "assay": "Synovial macrophage infiltration (ED1/ED2 immunohistochemistry) in knees of rats with mBSA antigen-induced arthritis",
  "assay_type": "in vivo, rat",
  "procedure": "Experiments were performed using a rat model for RA as published by Chandruputla et al. (BioMed Int, 2015) to show the effects of recombinant human alkaline phosphatase (hRESCAP) on RA. hRESCAP was compared with MTX used as a positive control. The antigen-induced rat model uses two subcutaneous immunizations with a mixture of methylated bovine serum albumin (mBSA), CFA (complete Freund's adjuvant antigen) and CBP (custom Bordetella pertussis antigen) and intra-articular injections of mBSA on one side knee and saline (negative control) on the counter knee. Immunohistochemical (IHC) analysis specifically focussed on infiltration with macrophages and knee swelling is followed over time after therapeutic treatment with MTX, or hRESCAP.\nIn the rat model, RA is induced in the right knee (RA knee), the contralateral left knee serves as a internal control (control knee). The model allows various options for therapeutic interventions, either before intra-articular injections or during boosts injections with mBSA. Two hours prior to AP administration, rats received a dose of levamisole (50 mg/kg, s.c.). For comparison, arthritic rats received treatment with methotrexate (1 mg/kg, i.p.).\nAt the end of the experiment, rats were sacrificed and knees were decalcified and processed for IHC analysis of synovial macrophage infiltration, including 2 rat macrophage antibodies; ED1 (homolog of human CD68) and ED2 (homolog of human CD163, a proposed marker for human M2 anti-inflammatory macrophages). IHC analysis of ED1 and ED2 macrophages was performed in multiple quadrants of synovial tissue, as described by Chandruputla et al (BioMed Int, 2015). Macrophage counting included synovial lining layer (SL 1-10) and synovial sublining layers (SL 1-20).\nAll rats (except healthy) were immunized and arthritis was induced via 1× or 4× intra-articular (i.a) mBSA injections, 4 or 5 days apart in the arthritic (right) knee, the contralateral (left, non-arthritic) knee serving as control knee. For therapeutic interventions, AP (human recombinant placenta AP, TNO, Zeist, The Netherlands) was administered subcutaneously (s.c.) at a dose of 700 U/kg (≈200 μg), MTX (VU University Medical Centers' Pharmacy) was administered intra-peritoneal (i.p.) at two dosages: 0.3 mg/kg (low dose) and 1.0 mg/kg (high dose). The rats were divided in 8 groups, based on different treatments and treatment schedules. In a prophylactic setting, two rats received AP twice prior to intra-articular (i.a.) arthritis induction and four rats received AP twice prior to intra-articular and 4× PBS in between i.a. injections. In the treatment groups, arthritic rats were administered AP twice or 4× after arthritis induction, either as standalone therapy or in combination with low or high dose MTX. Control rats received 500 μL of PBS (i.p.). […] At the end of study, all rats were sacrificed and tissues were excised for further processing and various analyses.\nThe arthritic and contralateral knees from all rats were dissected in toto and fixed for 7 days at 4° C. in 10% freshly made paraformaldehyde in PBS with 2% sucrose (pH=7.3) prior to decalcification in osteosoft (101728, Merck, Germany) for ˜2.5 weeks at room temperature. Thereafter, knees were embedded in paraffin. Sections of 5 μm were cut through the centre of the joint in longitudinal direction and stained with haematoxylin and eosin (HE) to assess the degree of inflammation in synovial tissue. Liver and spleen sections from all rats were dissected and fixed in 4% paraformaldehyde for 24 h before embedding in paraffin. Sections of 5 μm were cut and stained initially with HE and then for macrophages Staining for macrophages with ED1 (homologous to human CD68), and ED2 (homologous to human CD163, a marker for M2 anti-inflammatory macrophages), or isotype control antibody was performed. Images were captured using a Leica 4000B microscope and Leica digital camera DC500 (Microsystems B. V. Rijswijk, The Netherlands). […]",
  "key": {"[1]": {"settings": "2× AP administration followed by 4× PBS, p<0.01"}, "[2]": {"settings": "prophylactic AP treatment, 2× AP before intra-articular antigen injection"}, "[3]": {"settings": "prophylactic: 2× AP (700 U/kg) prior to intra-articular mBSA injection, p<0.01"}},
  "note": "Entries after “also recorded” stand apart in the source; their conditions may differ.",
  "data": [
    {"molecule": "AP: human recombinant placenta alkaline phosphatase (hRESCAP; TNO, Zeist), an ectophosphatase (protein, UniProt P05187 23-506, looked up) Alkaline phosphatase, …: IIPVEEENPDFWNREAAEALGAAKKLQPAQTAAKNLIIFLGDGMGVSTVTAARILKGQKKDKLGPEIPLAMDRFPYVALSKTYNVDKHVPDSGATATAYLCGVKGNFQTIGLSAAARFNQCNTTRGNEVISVMNRAKKAGKSVGVVTTTRVQHASPAGTYAHTVNRNWYSDADVPASARQEGCQDIATQLISNMDIDVILGGGRKYMFRMGTPDPEYPDDYSQGGTRLDGKNLVQEWLAKRQGARYVWNRTELMQASLDPSVTHLMGLFEPGDMKYEIHRDSTLDPSLMEMTEAALRLLSRNPRGFFLFVEGGRIDHGHHESRAYRALTETIMFDDAIERAGQLTSEEDTLSLVTADHSHVFSFGGYPLRGSSIFGLAPGKARDRKAYTVLLYGNGPGYVLKDGARPDVTESESGSPEYRQQSAVPLDEETHAGEDVAVFARGPQAHLVHGVQEQTFIAHVMAFAACLEPYTACDLAPPAGTTD", "values": [
      {"measurement": "reduction of synovial ED1+ macrophage infiltration in arthritic knees", "setting": "[1]", "value": 2, "unit": "fold"},
      {"measurement": "reduction of synovial ED2+ macrophage infiltration in arthritic knees", "setting": "[1]", "value": 3, "unit": "fold"},
      {"measurement": "ED1+ synovial macrophage infiltration in arthritic knee (in words)", "setting": "[2]", "value": "mild infiltration; also recorded: very much reduced; also recorded: markedly reduced infiltration"},
      {"measurement": "ED2+ synovial macrophages in arthritic knee (in words)", "setting": "[2]", "value": "do not show this activity; also recorded: markedly reduced infiltration"},
      {"measurement": "lower quantification of ED1+ macrophages in arthritic knees compared to untreated rats (1× i.a.)", "setting": "[3]", "value": 4, "unit": "fold"},
      {"measurement": "lower quantification of ED2+ macrophages in arthritic knees compared to untreated rats (1× i.a.)", "setting": "[3]", "value": 8, "unit": "fold"},
      {"measurement": "further reduction of ED1+ and ED2+ macrophage counts in arthritic knees", "setting": "therapeutic setting, 4× AP administration", "value": "~8", "unit": "fold"},
      {"measurement": "ED2+ synovial macrophages in arthritic knee (in words)", "setting": "therapeutic treatment, 4× AP after first i.a. and in between boosts", "value": "much reduced"},
      {"measurement": "ED1+ synovial macrophage infiltration in arthritic knee (in words)", "setting": "therapeutic treatment, 4× after first i.a. and in between boosts, AP 700 U/kg, MTX 1 mg/kg", "value": "reduces ED1+ infiltration; also recorded: very much reduced"}
    ]}
  ]
}
